Data on two molecules can be found in article PMC11035591, “Structural insights into the transporting and catalyzing mechanism of DltB in LTA D-alanylation” (Nature Communications, 2024).

Test [1] addresses T1, Streptococcus thermophilus DltB (Streptococcus thermophilus, UniProt Q5M4V4 1-415).
T1 construct: the entire chain from Met1 to Lys415 was modelled in the cryo-EM maps ('intact DltB protein'); Homo-tetramer (dimer of dimers) by SEC, cross-linking and cryo-EM; purification also gave oligomer, dimer and monomer fractions; also called WT DltB; DltB tetramer; source: E. coli C41(DE3); purified (Triton X-100 solubilisation, Ni-NTA, Superdex 200 in 0.03% β-DDM); also unpurified in whole cells, on …
T1 sequence (looked up): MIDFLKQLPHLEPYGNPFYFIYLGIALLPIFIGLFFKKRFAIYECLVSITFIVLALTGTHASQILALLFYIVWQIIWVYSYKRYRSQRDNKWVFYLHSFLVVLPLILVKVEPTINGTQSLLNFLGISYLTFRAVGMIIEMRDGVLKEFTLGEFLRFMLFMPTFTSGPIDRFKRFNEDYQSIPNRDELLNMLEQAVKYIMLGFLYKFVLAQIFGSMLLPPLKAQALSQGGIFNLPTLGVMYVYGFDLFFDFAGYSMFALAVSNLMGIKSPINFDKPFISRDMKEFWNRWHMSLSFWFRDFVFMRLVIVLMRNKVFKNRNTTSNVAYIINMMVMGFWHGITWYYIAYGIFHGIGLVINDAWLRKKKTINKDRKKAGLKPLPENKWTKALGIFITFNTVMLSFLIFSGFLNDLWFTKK
Kind of test: cryo-EM structure; DltB tetramer (10 mg/mL) incubated with purified DltC (1:1 ratio) for 30 min; 3.50 Å. The note with it: both partners purified.

The target in test [2] is T2, Streptococcus thermophilus DltB (Streptococcus thermophilus), Q5M4V4.
T2 chain: T1 sequence (looked up)
Kind of test: cryo-EM structure; apo DltB tetramer, about 10 mg/mL in β-DDM; 3.42 Å. As to conditions: remark: other sources report otherwise.

For test [3], the target named is T2, Streptococcus thermophilus DltB …. Description: cryo-EM structure; DltB tetramer (10 mg/mL) incubated with purified DltC (1:1 ratio) for 30 min; 3.50 Å. As to conditions: remark: other sources report otherwise.
For test [4] the target is unchanged. Description: cryo-EM structure; DltB tetramer (10 mg/mL) incubated with the inhibitor m-AMSA (1:3 ratio) for 30 min; 3.23 Å. As to conditions: remark: other sources report otherwise.
Test [5] has the same target. Description: SEC; membrane with overexpressed DltB (wild type or mutant) mildly solubilised with 0.25% β-DDM, Superdex 200; fractions analysed by western blot (anti-His). The note with it: remark: other sources report otherwise. A general note: SEC sorts molecules by how far they enter the pores of the column.

B1: Streptococcus thermophilus DltC (natural protein)
chain: MDVKAEVIEIIDELFMEDVSDMMDEDLFDAGVLDSMGTVELIVELESRFDIRVPVSEFGRDDWNTANKIVEGVTELRNA
notes: DltC, D-alanyl carrier protein, Streptococcus thermophilus; Used without the 4'-phosphopantetheine (Ppant) modification on Ser35; Modified pET28a vector with a TEV cleavage site; also called DltC-ST; source: E. coli BL21(DE3), purified (Ni column, TEV cleavage, Resource Q)
For B1, the binding result in test [1] is reported as “binds”.

B2: Streptococcus thermophilus DltB, Q5M4V4 1-415 (enzyme)
chain: T1 sequence (looked up)
With B2, the stoichiometry N in test [2], in test [3], in test [4] and in test [5] was 4 each time.
